Assay results reported in PMC2567903.

What was measured:
[1] = target: N-WASPC in complex with Alexa647-labeled EspFU R′5 (UniProt O08816); experiment: SEC
EspFU R′1-5 = EspFU R′1-5 (UniProt P0DJ88); experiment: ITC
EspFU R′4-5 = EspFU R′4-5 (UniProt P0DJ88); experiment: ITC
EspFU R′5 = EspFU R′5 (UniProt P0DJ88); experiment: ITC
Sequence of EspFU R′5 (P0DJ88 221-267): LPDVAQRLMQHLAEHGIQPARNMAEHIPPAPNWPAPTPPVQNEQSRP

Sequence of WASP GBD (residues 242–310) (P42768 242-310): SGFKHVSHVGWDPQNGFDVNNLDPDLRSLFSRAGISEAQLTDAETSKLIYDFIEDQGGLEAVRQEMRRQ
Sequence of EspFU R′1-5 (P0DJ88 80-314): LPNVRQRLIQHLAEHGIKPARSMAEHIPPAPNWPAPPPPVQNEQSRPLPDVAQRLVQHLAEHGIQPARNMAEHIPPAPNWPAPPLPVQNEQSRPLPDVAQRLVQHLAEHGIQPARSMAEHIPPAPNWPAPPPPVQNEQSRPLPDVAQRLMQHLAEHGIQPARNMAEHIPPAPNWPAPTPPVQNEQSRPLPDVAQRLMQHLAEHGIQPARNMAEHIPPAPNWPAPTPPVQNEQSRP
Sequence of EspFU R′4-5 (P0DJ88 221-314): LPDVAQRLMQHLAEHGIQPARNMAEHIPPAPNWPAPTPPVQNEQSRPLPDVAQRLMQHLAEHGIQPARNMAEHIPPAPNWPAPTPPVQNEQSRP
Sequence of N-WASPC in complex with Alexa647-labeled EspFU R′5 (O08816 193-501, chain 1 of 2): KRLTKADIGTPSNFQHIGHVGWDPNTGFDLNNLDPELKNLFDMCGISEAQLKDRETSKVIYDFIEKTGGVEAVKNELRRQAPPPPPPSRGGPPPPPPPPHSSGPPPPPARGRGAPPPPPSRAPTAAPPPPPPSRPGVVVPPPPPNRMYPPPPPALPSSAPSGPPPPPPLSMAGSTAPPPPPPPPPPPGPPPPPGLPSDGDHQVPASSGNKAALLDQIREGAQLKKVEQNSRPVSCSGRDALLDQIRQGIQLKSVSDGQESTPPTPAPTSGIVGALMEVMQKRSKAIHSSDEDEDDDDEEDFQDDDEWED
Sequence of N-WASPC in complex with Alexa647-labeled EspFU R′5 (P0DJ88 221-267, chain 2 of 2, further chain): as the sequence (P0DJ88 221-267) above

Substance	percent of the EspFU shifted into the EspFU-N-WASP-Arp2/3 complex [1] [%]	Kd (EspFU R′1-5) [µM]	stoichiometry N (EspFU R′1-5)	Kd (EspFU R′4-5) [µM]	stoichiometry N (EspFU R′4-5)	Kd (EspFU R′5) [µM]	stoichiometry N (EspFU R′5)
Arp2/3 complex	60						
WASP GBD (residues 242–310) (from UniProt P42768 242-310) (domain or fragment)		0.083	5.7	0.095	1.8	0.089	1
